Changes are numbered by the printed parent chain.
Legend:
[1] = molecular target: JR-CSF Env on JR-CSF pseudovirus; assay: cell-based or functional assay
BG505 N279A [2] = assay: cell-based or functional assay
BG505 K282A [3] = assay: cell-based or functional assay
[4] = molecular target: BG505 Env on BG505 pseudovirus (HIV isolate BG505); assay: cell-based or functional assay
[5] = molecular target: BG505 D368R recombinant gp120 protein; assay: ELISA on recombinant gp120
[6] = molecular target: T1, BG505 WT recombinant gp120 protein (HIV isolate BG505); assay: ELISA on recombinant gp120
T1 construct: also called WT protein

[7] = molecular target: T2, BG505 SOSIP.664 gp140 trimer (HIV isolate BG505); assay: complex used as bait in flow cytometry sorting
T2 construct: Soluble Env trimer made in HEK293F cells with co-transfected furin (cleaved gp120 and gp41 ectodomain, disulfide-linked); His- and Avi-tagged (biotinylated) versions were also made; also called BG505 SOSIP trimer; BG505 SOSIP.664-His gp140

BG505 N279A [8] = assay: ELISA, gp120 captured from lysed virions
BG505 K282A [9] = assay: ELISA, gp120 captured from lysed virions
BG505 G472A = assay: ELISA, gp120 captured from lysed virions
[10] = molecular target: T3, JR-CSF gp120 captured from lysed virions (HIV isolate JR-CSF, UniProt P20871 32-503); assay: ELISA, gp120 captured from lysed virions
T3 construct: gp120 from NP40-lysed pseudovirus, captured by an anti-C5 gp120 antibody

SS-B/La = molecular target: T4, SS-B/La (human, UniProt P05455 1-408, limits assumed); assay: single autoantigen ELISA (Aesku), cut-off of the manufacturer
T4 sequence (looked up): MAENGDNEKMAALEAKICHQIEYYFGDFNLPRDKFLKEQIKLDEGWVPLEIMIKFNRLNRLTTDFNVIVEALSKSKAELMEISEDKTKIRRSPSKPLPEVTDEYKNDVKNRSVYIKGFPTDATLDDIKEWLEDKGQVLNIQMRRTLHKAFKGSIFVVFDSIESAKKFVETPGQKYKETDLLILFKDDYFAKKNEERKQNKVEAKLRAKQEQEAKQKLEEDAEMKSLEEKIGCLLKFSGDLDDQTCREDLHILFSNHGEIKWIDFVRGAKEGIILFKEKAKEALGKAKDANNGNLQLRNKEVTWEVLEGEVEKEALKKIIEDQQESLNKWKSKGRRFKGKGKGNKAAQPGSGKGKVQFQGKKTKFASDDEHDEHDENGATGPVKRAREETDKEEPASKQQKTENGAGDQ
Description: (§1) Single antigen ELISA assays for SSA/Ro, SS-B/La, Sm, ribonucleoprotein (RNP), Jo-1, double-stranded DNA, centromere B, and histones were purchased from Aesku Diagnostics (Oakland, Calif.). The 96 wells were separately coated with these eight cellular and nuclear antigens for the qualitative detection of mAbs reactivity. A cut-off calibrator was provided by the manufacturer. The negative control was diluted human serum.

Jo-1 = molecular target: T5, Jo-1 (human, UniProt P12081 1-509, limits assumed); assay: as above
T5 sequence (looked up): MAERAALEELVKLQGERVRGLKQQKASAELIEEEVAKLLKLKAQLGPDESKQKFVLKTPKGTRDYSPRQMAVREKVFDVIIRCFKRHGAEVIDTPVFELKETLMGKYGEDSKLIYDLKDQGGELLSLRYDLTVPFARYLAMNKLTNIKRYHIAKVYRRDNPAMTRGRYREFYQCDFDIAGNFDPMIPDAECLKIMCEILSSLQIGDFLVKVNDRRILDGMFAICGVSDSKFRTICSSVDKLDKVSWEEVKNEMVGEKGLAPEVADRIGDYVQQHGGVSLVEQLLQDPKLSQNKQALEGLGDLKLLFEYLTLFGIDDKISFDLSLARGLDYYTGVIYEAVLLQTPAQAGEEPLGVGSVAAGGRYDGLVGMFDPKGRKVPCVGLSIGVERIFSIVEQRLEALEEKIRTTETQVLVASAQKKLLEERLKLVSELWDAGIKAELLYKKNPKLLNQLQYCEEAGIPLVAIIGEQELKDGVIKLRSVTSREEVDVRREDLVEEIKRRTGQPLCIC
Description: as §1

centromere B = molecular target: T6, centromere B (human, UniProt P07199 1-599); assay: as above
T6 sequence (looked up): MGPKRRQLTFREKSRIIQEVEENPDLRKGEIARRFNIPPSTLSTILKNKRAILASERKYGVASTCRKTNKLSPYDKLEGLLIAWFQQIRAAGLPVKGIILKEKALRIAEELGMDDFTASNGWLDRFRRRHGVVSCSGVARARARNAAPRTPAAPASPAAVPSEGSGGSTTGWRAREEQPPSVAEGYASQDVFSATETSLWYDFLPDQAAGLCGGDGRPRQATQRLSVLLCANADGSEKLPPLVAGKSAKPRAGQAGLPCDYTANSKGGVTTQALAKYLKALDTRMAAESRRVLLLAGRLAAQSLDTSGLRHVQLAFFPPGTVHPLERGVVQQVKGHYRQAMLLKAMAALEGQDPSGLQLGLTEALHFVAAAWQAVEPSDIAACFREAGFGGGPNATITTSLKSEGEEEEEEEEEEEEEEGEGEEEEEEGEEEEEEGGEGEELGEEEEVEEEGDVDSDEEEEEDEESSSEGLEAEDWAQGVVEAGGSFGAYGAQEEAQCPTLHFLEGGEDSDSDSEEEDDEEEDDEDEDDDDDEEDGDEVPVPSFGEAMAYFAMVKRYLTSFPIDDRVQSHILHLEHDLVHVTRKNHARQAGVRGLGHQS
Description: as §1

[11] = molecular target: T2, BG505 SOSIP.664 gp140 trimer; assay: single particle negative stain electron microscopy

B1: NC-Cow1 (antibody)
VH: QVQLRESGPSLMKPSQTLSLTCTVSGSSLNDKSVGWVRQAPGKALQWLGSVDTSGNTDYNPGLKSRLSITKDNSKSRISLTVTGMTTEDSATYYCITAHQKTNKKECPEDYTYNPRCPQQYGWSDCDCMGDRFGGYCRQDGCSNYIHRSTYEWYVSAWGQGLLVTVSS
VL: SYELTQPSSVSGSLGQRVSVTCSGSSSNVGNGYVSWYQLIPGSAPRTIIYGDTSRASGVPERFSGSRSGNTATLTISSLQAEDEADFFCASPDDSSSNAVFGSGTTLTVL
notes: detected with anti-human IgG; also called d238-P1B4_NC-Cow1; mature NC-Cow1 HC + mature NC-Cow1 LC
- IC50, pseudovirus neutralization [1]: 0.821 µg/mL
- IC50, pseudovirus neutralization (BG505 N279A [2]): 0.012 µg/mL
- IC50, pseudovirus neutralization (BG505 K282A [3]): 0.02 µg/mL
- IC50, pseudovirus neutralization [4]: 0.006 µg/mL
- EC50 (read off the curve) [5]: ~0.04 µg/mL
- EC50 (read off the curve) [6]: ~0.06 µg/mL
- binding result [7]: binds
- EC50 (BG505 N279A [8]): 0.11 µg/mL
- EC50 (BG505 K282A [9]): 1.18 µg/mL
- EC50 (BG505 G472A): 0.37 µg/mL
- EC50 [10]: 0.075 µg/mL
- binding result (SS-B/La): no binding (tested: 100 µg/ml)
- binding result (Jo-1): no binding (tested: 100 µg/ml)
- binding result (centromere B): no binding (tested: 100 µg/ml)

B2: NC-Cow1 Fab (Fab)
VH: B1 VH
VL: B1 VL
notes: Fab used for negative stain electron microscopy; also called cow Fab NC-Cow1
- binding result [11]: binds

B3: NC-Cow2 Fab (Fab)
VH: KVQLRESGPSLVKPSQTLSLTCMVSGSSLSDKAVGWVRQAPGKALEWLGIISAGGNRGYNSGLRSRLTISKDNSKNEVSLRVRSVTTEDSATYFCGTVHQKTQRKPICPDGYSDDSTLRYYSRCSDRDCWRCTGTTYYDTCQCGTYTWIDTHELHVDAWGQGLLVTVSS
VL: B1 VL with S1Q, Y2A, E3V, T5N, V20I, I48L, E61D, F87Y, P92A, D93E
notes: Fab used for negative stain electron microscopy; also called cow Fab NC-Cow2
- binding result [11]: binds
